Legend:
[1] = biological target: T1, cynoGDF15-mFC (monkey (cyno); mouse, UniProt G7PWZ3 197-308); test: ELISA, cynoGDF15-mFC coated
T1 construct: also called monkey GDF15 (cynoGDF15)
T1 sequence (looked up): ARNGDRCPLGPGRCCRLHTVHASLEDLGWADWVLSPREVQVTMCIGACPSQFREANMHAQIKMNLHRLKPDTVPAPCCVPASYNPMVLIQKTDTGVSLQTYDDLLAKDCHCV
Experimental: The experiment was performed as detailed in Example 2, except that the coating protein was cynoGDF15-mFC (GDF15: Genbank accession number EHH29815.1; mFC: Genbank accession number AAH31470.1), and the antibodies to be tested (the humanized antibodies), negative control antibody (hIgG1), and positive control antibodies Ponsegromab and AV380-hIgG1 were added to each well of the coated plate.

[2] = biological target: T2, GDF1 (R&D, 6937-GD-010) (UniProt P27539 254-372); test: ELISA, GDF1 coated at 1 µg/ml, HRP-anti-human IgG
T2 sequence (looked up): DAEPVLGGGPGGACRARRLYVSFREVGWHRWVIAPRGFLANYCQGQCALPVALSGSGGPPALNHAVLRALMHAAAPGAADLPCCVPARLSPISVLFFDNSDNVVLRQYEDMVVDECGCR
Experimental: GDF15 (ACROBiosystems, GDS-HS149), GDF1 (R&D, 6937-GD-010), and GDF3 (R&D, 5754-G3-010) proteins were dissolved in PBS at a concentration of 1 μg/ml and were used to coat ELISA 96-well plate. On the next day, the 96-well plate was blocked with 2% BSA in PBS for 1 hour. After removing the blocking solution, GDF15 antibody 53E5 (hz), control antibody Ponsegromab and irrelevant hIgG1 were added at 4 μg/ml. After incubation at room temperature for 1 hour, the plate was washed, and then HRP-anti-human IgG was added. After incubation at room temperature for 1 hour, the HRP enzyme activity signal (OD450) was detected. The OD450 value is the relative signal of the antibody binding amount.

[3] = biological target: T3, GDF15-HIS (ACROBiosystems, CAT #: GD5-H5149) (human, UniProt Q99988 197-308); test: ELISA on human GDF15, antibody after 2 weeks at 37 °C in plasma
T3 construct: Bought protein; also called GDF15 (ACROBiosystems, GD5-H5149); human GDF15; not shown: His tag
T3 sequence (looked up): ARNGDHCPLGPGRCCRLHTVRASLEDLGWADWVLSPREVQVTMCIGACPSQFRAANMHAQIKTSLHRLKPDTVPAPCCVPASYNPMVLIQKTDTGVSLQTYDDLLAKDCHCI
Experimental: (§1) […] of the antibodies to be tested (final concentration 1 mg/ml) were added to 200 μl of plasma and PBS, respectively, tightly sealed and placed at 37° C. for 2 weeks. The change of protein binding activity was detected by ELISA.

[4] = biological target: T3, GDF15-HIS (ACROBiosystems, CAT #: …); test: ELISA on human GDF15, antibody after 2 weeks at 37 °C in PBS; PBS, 37 C for 2 weeks (not plasma)
Experimental: as §1

[5] = biological target: T4, GDF15-mFC protein (human; mouse, UniProt Q99988 197-308); test: blocking ELISA as in Example 4, GFRAL-hIgG1 Fc coated (competitor), GDF15-mFC mixed with antibody
T4 construct: extracellular domain;domain: IgG2a-FC; also called GDF15-mFc fusion protein
T4 sequence (looked up): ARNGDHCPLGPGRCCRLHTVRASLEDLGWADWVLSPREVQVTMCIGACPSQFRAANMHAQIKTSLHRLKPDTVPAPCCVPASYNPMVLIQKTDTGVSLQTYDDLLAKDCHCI
Experimental: A fusion protein comprising the extracellular region of GFRAL protein (Genbank accession number NM_207410.2) and human IgG1-FC (Genbank accession number CAC20454.1) was diluted to […] with coating solution, followed by adding to ELISA plate at 50 μl/well and incubating at 4° C. overnight. The solution in the wells was discarded and the plate was washed 3 times with washing solution, each time for 3-5 minutes, and dried via tapping. 200 μl of blocking solution was added to each well followed by incubating at 4° C. overnight. The plate was washed 3 times with washing solution, and the coated plate may be stored at −20° C. or 4° C. for future use.
The antibodies to be tested, positive control antibody AV380-mIgG1 and blank control (PBS) were added to the wells. […] At the same time, GDF15-mFC protein (GDF15: Genbank accession number NM_004864.3; mFC: Genbank accession number AAH31470.1) was added at 20 ng/well and mixed with the antibodies to be tested. The wells were incubated at 37° C. for 1 hour, washed, and dried via tapping. Then the enzyme-labeled secondary antibody, horseradish peroxidase-labeled goat anti-mouse IgG (SIGMA, catalog number A9044-2 ml) was added to each well, at a dilution of 1:10000, 50-100 μl/well. The wells were incubated at 37° C. for 2 hours, washed, and dried via tapping. 100 μl of freshly prepared developing solution TMB was added to each well and incubated at 37° C. for 30 minutes. 2 mol/L H₂SO₄ was added to terminate the reaction, and the OD value was obtained on an enzyme-linked immunosorbent reader.
The experiment was performed as detailed in Example 4, except that the antibodies to be tested (the humanized antibodies), negative control antibody (hIgG1), and positive control antibodies Ponsegromab and AV380-hIgG1 were added to each well of the coated plate.

B1: 53E5(hz) (antibody, human IgG1, kappa, V domains shown)
VH: QVQLQESGPGLVKPSETLSLTCTFSGFSLSTSGMGVGWIRQPPGKGLEWLAHILWDDVKRYNPALKSRLTISKDSSKSQISLKLSSVTAADTAVYYCVQMAWDWFAYWGQGTTVTVSS
VL: DIQMTQSPSSLSASVGDRVTITCKASQNVDTNVAWYQQKPGQSPKALIYSASYRSSGVPSRFSGSGSGTDFTLTISSLQPEDFATYYCQQYHSYPTFGQGTRLEIKR
notes: also called S3E5 (hz); humanized antibody 53E5
EC50 [1]: 0.0816 µg/mL | OD450.Max [1]: 1.03 OD450 | binding result [2]: no binding (tested: 4 µg/ml) | EC50 [3]: 0.0372 µg/mL | EC50 [4]: 0.127 µg/mL | IC50 [5]: 0.253 µg/mL | OD450.Max [5]: 1.05 OD450
